Where a chain is given by its changes, count along the chain named.
B1: ISOP193ER9P1A4 (designed binder, not shown: small tags and cut ends)
chain: LPAPKNLIVSRVTEDSARLSWTAPDAAFDSFEIYYKELRAEGEAIVLTVPGSERSYDLTGLKPGTEYLVTIYGVKGGSVSIPLSAIFTT
B2: ISOP193ER9P1C4 (designed binder, not shown: small tags and cut ends)
chain: B1 chain with I8V, E32D, K36F, L38H, R39P, A40V, E41G, S78I, V79W, I81V
B3: ISOP193ER9P1C9 (designed binder, not shown: small tags and cut ends)
chain: LPAPKNLVVSRVTEDSARLSWTAPDAAFDSFDIYYFEHPVGGEAIVLTVPGSERSYDLTGLKPGTEYLVTIYGVKGGELSKPLSAISTT
B4: ISOP193ER9P1C10 (designed binder, not shown: small tags and cut ends)
chain: B1 chain with P2L, I8V, T22I
B5: ISOP193ER9P1D4 (designed binder, not shown: small tags and cut ends)
chain: B3 chain with E78T, L79Y, K81P, S87F
B6: ISOP193ER9P1E2 (designed binder, not shown: small tags and cut ends)
chain: B3 chain with E78F, L79W, K81Q, S87F
B7: ISOP193ER9P1G2 (designed binder, not shown: small tags and cut ends)
chain: B3 chain with H38Q, E78Y, K81M, S87F
B8: ISOP193ER9P1G9 (designed binder, not shown: small tags and cut ends)
chain: B3 chain with E78N, L79G, K81S, S87F
B9: ISOP193ER9P1E1 (designed binder, not shown: small tags and cut ends)
chain: B3 chain with E78S, L79V, K81I, S87F
B10: ISOP120HR5P1E2 (designed binder, not shown: small tags and cut ends)
chain: LPAPKNLVVSHVTEDSARLSWTAPDAAFDSFEIYYLEGGRGEAIVLTVPGSERSYDLTVLKPGTEYLGTIYGVKCGWASNPLSAIFTT
notes: FN3 domain (Centyrin); tested as E. coli lysate

The binders below were run against unrelated Fc-fused recombinant protein (assay: ELISA, negative control Fc protein).

Binder | ELISA Fc Control (RLU)
B1 | 960
B2 | 960
B3 | 880
B4 | 2480
B5 | 1120
B6 | 1040
B7 | 1680
B8 | 1280
B9 | 1200

Each binder was assayed against T1, human serum albumin (human, UniProt P02768 25-609) (assay: ELISA, negative control HSA).
T1 construct: Negative control of the ELISA; also called HSA
Method in brief: (§1)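 Biotinylated CD137-Fc, an unrelated Fc-fusion protein or human serum albumin captured 1 h on streptavidin plates blocked in Starting Block T20; diluted bacterial lysate applied 1 h. Bound binders detected with HRP-conjugated anti-Centyrin antibody (PAB25) for 1 h, then POD substrate read-out.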

T1 sequence (P02768 25-609 limits assumed): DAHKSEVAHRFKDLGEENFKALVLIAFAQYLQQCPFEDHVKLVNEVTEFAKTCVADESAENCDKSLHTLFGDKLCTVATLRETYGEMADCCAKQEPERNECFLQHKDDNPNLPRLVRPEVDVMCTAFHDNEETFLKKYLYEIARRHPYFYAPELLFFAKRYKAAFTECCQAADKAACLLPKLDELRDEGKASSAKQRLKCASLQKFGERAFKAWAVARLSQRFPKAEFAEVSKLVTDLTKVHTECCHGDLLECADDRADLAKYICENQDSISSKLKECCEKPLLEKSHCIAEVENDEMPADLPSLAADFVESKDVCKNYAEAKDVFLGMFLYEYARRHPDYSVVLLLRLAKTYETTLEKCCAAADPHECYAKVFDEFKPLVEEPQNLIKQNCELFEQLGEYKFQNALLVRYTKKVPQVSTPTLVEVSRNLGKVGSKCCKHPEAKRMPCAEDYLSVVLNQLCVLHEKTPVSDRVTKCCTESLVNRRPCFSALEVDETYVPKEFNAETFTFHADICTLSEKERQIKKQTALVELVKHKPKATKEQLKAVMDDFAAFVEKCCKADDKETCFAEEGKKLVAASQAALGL

Binder | ELISA HSA (RLU)
B1 | 480
B2 | 320
B3 | 560
B4 | 560
B5 | 480
B6 | 560
B7 | 720
B8 | 400
B9 | 560

These binders were tested against T2, recombinant biotinylated CD137 protein (Fc-fusion protein, R&D Systems 838-4B) (human, UniProt Q07011 24-186, biotinylated, sites not stated) (assay: ELISA, lysate on biotinylated CD137-Fc).
T2 construct: Bought Fc fusion; also called CD137-Fc
Method in brief: as §1

Binder | ELISA CD137 (RLU)
B1 | 9.81e+06
B2 | 1.55e+07
B3 | 1.43e+07
B4 | 8.87e+06
B5 | 1.6e+07
B6 | 1.57e+07
B7 | 7.19e+06
B8 | 1.29e+07
B9 | 1.5e+07

What follows are binders tested against human serum albumin (human) (UniProt P02768) (assay: ELISA, bacterial lysate on plate-bound antigen, luminescence).
Sequence of human serum albumin (human) (P02768 25-609 limits assumed): as above

Binder | ELISA HSA (RLU)
B10 | 2880

The binders below were run against unrelated Fc-fused recombinant protein (negative control) in the same assay as above.

Binder | ELISA Fc Control (RLU)
B10 | 720

The binders below were run against extracellular domain of human CD137 on the surface of CHO-K1 cells (human, UniProt Q07011 24-186) (assay: flow cytometry on CHO-K1 cells with human CD137 ECD).
Protocol: Cell surface binding was analyzed via flow cytometry. Cenyrins were prepared at a maximal concentration of 500 nM in the presence of 125 nM anti His-mIgG1 antibody and then serially diluted in PBS/1% FCS buffer. Samples were then applied to approx 100 000 CHO-Kl cells expressing the extracellular domain of human CD137 on their surface. Unbound Centyrin/Antibody complexes were washed away and bound FN3 domains were detected by the addition of goat anti mouse-FITC labeled antibody. Samples were then aquired by flow cytometry. Subsequently, Mean flurescence intensity was plotted against the log Centyrin concentration and EC50 values were calculated by nonlinear regression using GraphPad Prism.

Binder | EC50 [nM]
B1 | 27.1
B2 | 18.9
B3 | 14.1
B4 | 31
B5 | 12.9
B6 | 15.3
B7 | 22.9
B8 | 15.3
B9 | 12.6

Each binder was assayed against T3, recombinant biotinylated human CD137 protein (Fc-fusion protein, R&D Systems 838-4B) (human, UniProt Q07011 24-186, biotinylated (site not stated)) (assay: ELISA, bacterial lysate on plate-bound antigen, luminescence).
T3 construct: Bought Fc fusion; The ELISA used the same antigen as the panning; also called CD137-Fc; biotinylated CD137; not shown: Fc part of the bought fusion protein
Method in brief: as §1

Binder | ELISA CD137-Fc (RLU)
B10 | 1.32e+06

These binders were tested against T4, recombinant human CD137-Fc-IgG1 (human, UniProt Q07011 24-186, limits assumed) (assay: SPR (Biacore T100), CD137-Fc captured by anti human IgG, 1:1 model).
T4 construct: Captured by anti human IgG on the Biacore chip
Protocol: For selected FN3 domains, binding to recombinant CD137-Fc was evaluated using surface plasmon resonance (Biacore T100). For each cycle approximately 500 RU of recombinant human CD137-Fc-IgG1 was captured via an anti human IgG immobilized on the surface of a CMS chip. Once CD137-Fc protein was captured, increasing concentrations of Centyrin candidates were injected for 120 s and dissociation was then analyzed for 240 s. A flow cell immobilized with just the anti human IgG1 antibody served as reference flow cell. Kd values were subsequently extrapolated using a 1:1 kinetic binding model (BiaEvaluation software).

Binder | Kd [nM]
B1 | 117
B2 | 13.1
B3 | 25.1
B4 | 108
B5 | 9.55
B6 | 10.9
B7 | 65.6
B8 | 59.9
B9 | 10.6
